Blank lines part the entries; values can stand above or below the binder they belong to.
Legend:
Recombinant human bFGF [1] = target: T1, Recombinant human bFGF (human, UniProt P09038 143-288, limits assumed); experiment: ELISA, coated human bFGF
T1 construct: Bought (Sigma); also called hFGF-2; human basic fibroblast growth factor

Recombinant human bFGF [2] = target: T1, Recombinant human bFGF; experiment: competition ELISA, coated bFGF, competitor Fc-FGFR1
GST-hVEGF121 [3] = target: T2, GST-hVEGF121 (human, UniProt P15692-9 27-147); experiment: ELISA, coated GST-hVEGF
T2 construct: plate coating of the VEGF ELISAs; also called human VEGF; not shown: glutathione S-transferase (GST) fusion partner
T2 sequence (looked up): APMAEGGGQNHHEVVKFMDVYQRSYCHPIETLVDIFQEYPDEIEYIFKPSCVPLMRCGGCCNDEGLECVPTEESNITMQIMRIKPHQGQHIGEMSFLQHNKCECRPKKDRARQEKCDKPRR

GST-hVEGF121 [4] = target: T2, GST-hVEGF121; experiment: competition ELISA, coated GST-hVEGF, competitor Fc-VEGFR2

T1 sequence (P09038 143-288 limits assumed): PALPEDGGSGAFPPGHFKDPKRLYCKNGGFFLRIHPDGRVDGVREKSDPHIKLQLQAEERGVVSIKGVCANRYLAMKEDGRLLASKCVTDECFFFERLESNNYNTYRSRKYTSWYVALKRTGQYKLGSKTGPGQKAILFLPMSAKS

B1: Nb-FF2\cmycH6 (VHH)
chain: QVQLVESGGGLVQPGGSLRLSCAASGTEDGRLLTLGGSWFRQAPGQGLEAVAAIGAGDRGGATYYADSVKGRFTISRDNSKNTLYLQMNSLRAEDTAVYYCTALYERQPQLAATKVARKWGQGTLVTVSSAHHSEDPSSKAPKAPAQVQLVESGGGLVQPGGSLRLSCAASGTEDGRLLTLGGSWFRQAPGQGLEAVAAIGAGDRGGATYYADSVKGRFTISRDNSKNTLYLQMNSLRAEDTAVYYCTALYERQPQLAATKVARKWGQGTLVTVSS
notes: Nb-FF2 without c-myc tracer peptide and histidine tag
EC50 (Recombinant human bFGF [1]): 5.98 nM
IC50 (Recombinant human bFGF [2]): 53.7 nM

B4: Nb-V1\cmycH6 (VHH)
VHH: QVQLVESGGGLVQPGGSLRLSCAASGNSAEDRLYNSYTWFRQAPGQGLEAVAAISSHFSAGLTYYADSVKGRFTISRDNSKNTLYLQMNSLRAEDTAVYYCEITSHASHNDAWSTPRTVWGQGTLVTVSS
notes: Nb-V1 without c-myc tracer peptide and histidine tag
EC50 (GST-hVEGF121 [3]): 4.64 nM
IC50 (GST-hVEGF121 [4]): 28.6 nM

More lines, in order of falling EC50 (Recombinant human bFGF [1]), values ahead:

EC50 (GST-hVEGF121 [3]): 4.56 nM
EC50 (Recombinant human bFGF [1]): 11.8 nM
IC50 (Recombinant human bFGF [2]): 132 nM
IC50 (GST-hVEGF121 [4]): 28.6 nM
B2: Nb-FV1\cmycH6 (bispecific antibody)
chain: QVQLVESGGGLVQPGGSLRLSCAASGTEDGRLLTLGGSWFRQAPGQGLEAVAAIGAGDRGGATYYADSVKGRFTISRDNSKNTLYLQMNSLRAEDTAVYYCTALYERQPQLAATKVARKWGQGTLVTVSSAHHSEDPSSKAPKAPAQVQLVESGGGLVQPGGSLRLSCAASGNSAEDRLYNSYTWFRQAPGQGLEAVAAISSHFSAGLTYYADSVKGRFTISRDNSKNTLYLQMNSLRAEDTAVYYCEITSHASHNDAWSTPRTVWGQGTLVTVSS
notes: Nb-FV1 without c-myc tracer peptide and histidine tag

EC50 (GST-hVEGF121 [3]): 4.84 nM
EC50 (Recombinant human bFGF [1]): 11.5 nM
IC50 (Recombinant human bFGF [2]): 137 nM
IC50 (GST-hVEGF121 [4]): 28.4 nM
B3: Nb-VF3\cmycH6 (bispecific antibody)
chain: QVQLVESGGGLVQPGGSLRLSCAASGNSAEDRLYNSYTWFRQAPGQGLEAVAAISSHFSAGLTYYADSVKGRFTISRDNSKNTLYLQMNSLRAEDTAVYYCEITSHASHNDAWSTPRTVWGQGTLVTVSSAHHSEDPSSKAPKAPAQVQLVESGGGLVQPGGSLRLSCAASGTEDGRLLTLGGSWFRQAPGQGLEAVAAIGAGDRGGATYYADSVKGRFTISRDNSKNTLYLQMNSLRAEDTAVYYCTALYERQPQLAATKVARKWGQGTLVTVSS
notes: Nb-VF3 without c-myc tracer peptide and histidine tag
